Data as given in patent US20190360025A1.

Tests used:
[1] = target: tumor necrosis factor alpha (TNF-α), R&D Systems 210-TA-005 (UniProt P01375); assay: c-PLA 10X probes, buffer; TNF-α 1.00E-10 M
[2] = target: tumor necrosis factor alpha (TNF-α), R&D Systems 210-TA-005 (UniProt P01375); assay: t-PLA 1X probes, human plasma; TNF-α 1.00E-13 M
[3] = target: tumor necrosis factor alpha (TNF-α), R&D Systems 210-TA-005 (UniProt P01375); assay: t-PLA, buffer; TNF-α 1.00E-11 M
[4] = target: tumor necrosis factor alpha (TNF-α), R&D Systems 210-TA-005 (UniProt P01375); assay: c-PLA 1X probes, buffer; TNF-α 1.00E-09 M
[5] = target: tumor necrosis factor alpha (TNF-α), R&D Systems 210-TA-005 (UniProt P01375); assay: t-PLA, buffer; TNF-α 1.00E-09 M
[6] = target: tumor necrosis factor alpha (TNF-α), R&D Systems 210-TA-005 (UniProt P01375); assay: t-PLA 10X probes, human plasma; TNF-α 1.00E-11 M
[7] = target: tumor necrosis factor alpha (TNF-α), R&D Systems 210-TA-005 (UniProt P01375); assay: c-PLA 1X probes, human plasma; TNF-α 1.00E-08 M
[8] = target: tumor necrosis factor alpha (TNF-α), R&D Systems 210-TA-005 (UniProt P01375); assay: c-PLA 10X probes, human plasma; TNF-α 1.00E-12 M
[9] = target: vascular endothelial growth factor (VEGF), R&D Systems 293-VE-010 (human) (UniProt P15692); assay: SPR (Biacore T200), biotinylated antibody on CAP chip, 1:1 fit
Sequence of UniProt P15692 (P15692 other isoform, or with tags, fused parts or gaps limits assumed): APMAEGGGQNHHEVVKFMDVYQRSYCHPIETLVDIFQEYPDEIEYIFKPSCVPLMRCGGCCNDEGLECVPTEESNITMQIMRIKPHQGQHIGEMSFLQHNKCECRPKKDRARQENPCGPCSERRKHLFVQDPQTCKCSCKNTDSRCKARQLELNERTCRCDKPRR

[10] = target: vascular endothelial growth factor (VEGF), R&D Systems 293-VE-010 (human) (UniProt P15692); assay: t-PLA with preamplification; VEGF 1.00E-11 M

Sequence of UniProt P01375 (P01375 77-233 limits assumed): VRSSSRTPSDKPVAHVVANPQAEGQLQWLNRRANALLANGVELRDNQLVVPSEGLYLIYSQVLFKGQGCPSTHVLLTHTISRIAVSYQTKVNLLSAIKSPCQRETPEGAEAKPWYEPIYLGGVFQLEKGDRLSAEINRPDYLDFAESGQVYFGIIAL

affinity-purified polyclonal anti-TNF-α antibody (R&D Systems AF-210-NA)
Counts [1]: 4620 | Counts [2]: 203000 | Counts [3]: 443000 | SBR [3]: 2.6 | Counts [4]: 3700 | SBR [4]: 232 | Counts [5]: 1.98e+07 | SBR [5]: 116 | Counts [6]: 4.13e+06 | Counts [7]: 4770 | SBR [7]: 63 | Counts [8]: 2260

affinity-purified polyclonal anti-VEGF antibody (R&D Systems AF-293-NA)
Kd [9]: 3.6 pM | Counts [10]: 1.26e+07 | SBR [10]: 71
